Source: publication PMC5641094, “A peptide antagonist of Prep1-p160 interaction improves ceramide-induced insulin resistance in skeletal muscle cells” (Oncotarget, 2017)

Key:
L6 cells [1] = test: Cell toxicity in L6 cells; format: cell-based, rat; conditions: 10μM peptide in the presence of liposomes, data not shown
L6 cells [2] = test: FACS analysis of peptide uptake in L6 cells; format: cell-based, rat; conditions: FITC-conjugated peptide, increasing concentrations, in the presence of liposomes, harvested 48h later, FACS FL-1, four experiments
Procedure: Figure 3 Design and in vitro effects of Prep1(54-72) peptide on Prep1/p160 association (A) Binding curves of Prep1(59-72) and Prep1(54-72) peptides to p160_20-160 by ELISA-like assays. Biotinylated peptides at several concentrations were added in triplicate to a 96-well plate coated with p160_20-160 (0.1μM). Experiments were performed at least twice and the average results fitted using GraphPad Prism. […] (B) Competition binding experiments. His6-tagged-p160_20-160 at 0.25μM was incubated with Prep1(59-72) and Prep1(54-72) at concentrations ranging between 0.001÷10μM and added to a 96-well plate coated with Prep1_45-155 (0.10μM). Results are the average of three independent experiments. (C) L6 cells were incubated with increasing concentrations of the fluorescein-conjugated peptide (FITC-Prep1(54-72)) and peptide uptake was detected by FACS analysis of fluorescein-labeled cells. […] Protein lysates were immunoprecipitated with Prep1 antibodies and analyzed by Western blot using antibodies for p160 or for Prep1. […] The blots were detected by ECL and autoradiography. […]
L6 cells were incubated with negative control (NC) and Prep1(54-72) peptides conjugated with fluorescein isothiocianate (FITC) at different concentrations and harvested 48h later. […] The samples were acquired by a BD LSRFortessa (BD Bioscience, San Jose, CA) and analyzed using BD FACS Diva Software.

[3] = molecular target: Prep1 (Pbx regulating protein 1), endogenous in L6 cells (rat (endogenous in L6))
His6-tagged p160(20-160) = molecular target: T1, His6-tagged p160(20-160) (UniProt Q7TPV4 20-160); test: ELISA; competition ELISA: plate coated with Prep1(45-155) (0.1 uM); His6-tagged p160(20-160) at 0.25 uM pre-incubated with peptides at 0.001-10 uM; detection with anti-His HRP-conjugated antibody; conditions: both partners purified
T1 construct: also called His6-p160(20-160); p160(20-160) domain
T1 sequence (looked up): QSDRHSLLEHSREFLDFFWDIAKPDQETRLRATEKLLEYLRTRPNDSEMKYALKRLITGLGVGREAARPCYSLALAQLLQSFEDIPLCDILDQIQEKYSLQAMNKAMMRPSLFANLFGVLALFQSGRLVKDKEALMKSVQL

FITC-Prep1(54-72): fluorescein-conjugated Prep1(54-72) peptide
cell toxicity (L6 cells [1]): without inducing any apparent cell toxicity
peptide uptake into cells (L6 cells [2]): dose-dependent manner

B1: p160 myb binding protein, endogenous in L6 cells (natural protein)
chain: MAEMKSPTKAEPASPAEAPQGDRRSLLEHSREFLDFFWDIAKPDQETRLRATEKLLEYLRTRPSDSEMKYALKRLITGLGVGREAARPCYSLALAQLLQSFEDIQLCDILGQIQEKYNLQAMNKAMMRPTLFANLFGVLALFQSGRLVKDKEALMKCVRLLKILSHHYNHLQGQPVKALVDILSEVPESMFQEILPKVLKGDMKVILSSPKYLELFLLARQRVPAELESLVGSVDLFSEDNIPSLVNILKVAANSVKKEQKLPDVALNLLRLALQENKFERFWKEVLEEGLLKKPSYTSSYMCFRLLGASLPLLSDEQLQLVMRGDLIRHFGEHMVVSKSQNPLRFIPEISAYVGTFLEGCQDDPKRQFTVMVAFTAITNQGLPVMPTFWRVTRFLNTEALQNYVTWLRDMFLQPDLDSLVDFSTANQKRVQVASLNVPERTVFRLRKWIIHRLVSLVDHLHLEKDEAVVEQIARFCLFHAFFKTKKATPQIPETKQHFSFPLEDGNRGVIVSAFFSLLQTLSVKFRQTPDLAENGKPWTYRLVQLADMLLKHNRNVANVTPLTAQQRQAWDQMMSTLKELEAQSSETRAIAFQHLLLLVGLHLFKSPAESCDVLGDIQTCIKKSMEQNLRRSRSRAKASQEPVWVEVMVEILLSLLAQPSNLMRQVVRSVFGHVCSHLTPRGLQLILAVLNPETNEDEEDNVVVTDTDEKQLKHGEDADSDSEDSKNSESDVDSEDGEESEEEDRDKDVDPGFRQQLMEVLQAGNALGGEEEEEEELGDEAMMALDQNLASLFAEQKMRIQARHEEKNKLQKEKQLRRDFQIRALDLIEVLVTKQPEHPLILELLEPLLNIIQRSMRSRGSTKQEQDLLHKTARIFMHHLCRARHYCHEVEPGAEALHAQVERLVQQAGNQADASVALYYFNASLYLLRVLKGNTTKRYQDGQKLEGADIKSEPKDSEVQTTSCLDLDFVTRVYSASLESLLTKRNSPLTIPMFLDLFSRYPVICKNLLPIVVQHVAGSSRPRHQAQACLLLQKALSARELRVCFEDPEWEQLISQVLGKTTQTLQTLGEAQSKGEHQRELSILELLNTVFRIVNHEKLSVDLTAFLGMLQGKQQKLQQNLQQGNHSSGSSRLYDLYWQAMNLLGVQRPKSEKKNVKDIPSDSQSPISTKRKKKGFLPETKKRKKLKSEGTTSEKKAASQQDAVTEGAMPAATGKDQPPSTGKKRRKRVKANTPSQVNGVTVAKSPAPNNPTLSPSTPPAKTPKVQKKKEKLSQVNGSTPVSPVEPESKKHQKALSTKEVKRRSSQSALPKKRARLSLVSRSPSLLQSGIRKRRVARRRVQTP
decrease in p160 protein level in C2cer-treated L6 cells incubated with Prep1(54-72), Western blot [3]: 25%

B2: Prep1(54-72) peptide (peptide)
peptide: Ac-KQAIYRHPLFPLLALLFEK-NH2
notes: Prep1 (Pbx regulating protein 1), stretch of the HR1 domain, named residues 54-72; Brought into L6 cells in the presence of liposomes for the cell experiments; source: synthetic peptide (Fmoc solid phase, RP-HPLC purified)
IC50 (His6-tagged p160(20-160)): 200 nM
